Test results taken from article PMC10338669.

Target: aSyn-MFP (alpha-synuclein with C-terminal MFP/mMaroon1, single-fusion acceptor) (UniProt P37840)
Test: FRET or BRET

O-aSyn (alpha-synuclein with N-terminal OFP/mCyRFP1, single-fusion donor) (from UniProt P37840 1-140) (natural protein)
FRET efficiency E (Ex 473 nm): 0.266
FRET efficiency E (Ex 532 nm): 0.229
